Laboratory results reported in patent publication US20230060388A1 (SHANGHAI HENLIUS BIOTECH, published 2023).

T1: recombinant human TIGIT extracellular domain (ECD) (human, UniProt Q495A1 22-138)
T1 construct: also called h-TIGIT ECD; recombinant human TIGIT ECD
T1 sequence: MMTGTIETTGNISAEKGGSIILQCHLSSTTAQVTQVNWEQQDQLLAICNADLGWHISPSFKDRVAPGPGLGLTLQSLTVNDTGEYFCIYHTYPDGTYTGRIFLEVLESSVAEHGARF

T2: human TIGIT expressed on cells (stably transfected Jurkat cells) (human, UniProt Q495A1 22-244)
T2 construct: Also used here for TIGIT on primary T cells in the MLR; also called h-TIGIT; T cell immunoreceptor with Ig and ITIM domains
T2 sequence: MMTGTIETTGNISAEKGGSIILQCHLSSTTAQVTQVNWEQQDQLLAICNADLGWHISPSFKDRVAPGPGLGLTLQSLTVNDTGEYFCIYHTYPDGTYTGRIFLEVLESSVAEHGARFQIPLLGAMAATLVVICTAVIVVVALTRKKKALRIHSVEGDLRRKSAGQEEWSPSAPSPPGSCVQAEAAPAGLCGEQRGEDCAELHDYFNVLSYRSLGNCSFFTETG


Experiments:
[1] = target: T1, recombinant human TIGIT extracellular …; experiment: ELISA, VHH supernatant on h-TIGIT ECD coated plates
Method: The VHH antibody genes were amplified by PCR under protocols know in the art, purified by DNA agarose gel, constructed into a phagemid vector pADL-23c (Antibody Design Labs) and transformed to TG1 electrocompetent cells (from Lucigen). Transformed TG1 cells were cultured in Y2T medium. […] Phages in supernatants of culture were harvested by centrifugation, and panning of binders to human-TIGIT (h-TIGIT) or cynomolgus-TIGIT (cyno-TIGIT) antigen was performed using streptavidin-coupled Dynabeads coated with biotinylated h-TIGIT or cyno-TIGIT ECD. After 3 rounds of panning, binders of h-TIGIT or cyno-TIGIT were eluted, which were used to infect SS320 cells. Colonies of SS320 cells were picked and cultured in Y2T medium, and IPTG was added for secretion of VHH antibodies. Supernatants with VHH antibodies were screened by ELISA assays using h-TIGIT ECD coated plates. Positive h-TIGIT binders were picked for sequencing. 29 clones with different sequences were selected. Binding ability of VHH antibodies on cyno-TIGIT was also examined by ELISA. The top 21 binders and their CDRs and VHs are shown in the Sequence Table (SEQ ID NOS: 1-84).

[2] = target: T1, recombinant human TIGIT extracellular …; experiment: PVR blocking ELISA (blocked ligand: PVR), IC50 plotted against the whole cell binding EC50
[3] = target: T2, human TIGIT expressed on cells (stably …); experiment: whole cell binding to h-TIGIT stable cells, EC50 plotted against the blocking ELISA IC50

Binder | binding result [1] | binding result [2] | binding result [3]
12H7 VHH (VHH, VHH in E. coli supernatant) VHH: QVQLVDSGGGLVQAGGSLRLSCKVSGNFLSVSDMSWYRQAPGMERDVVATVTEHGRTTYTDSVKGRFTISRDNAEHTTYLEMNNLKPEDTAVYFCKASDVFTDAGAHEAVLIRDYWGQGTQVTVSS | binds | – | –
4C6 VHH (VHH, VHH in E. coli supernatant) VHH: QVQLVESGGGLVQAGGSLRLACAASGRTFSSYPMGWFRQGPGKERESVAAISSDGRFTYYAASVKGRFTISKDNAKSAAFLQMNSLKPEDTAVYRCAVDPTGWGTIEADFRSWGQGTQVTVSS | binds | – | –
3H7 VHH (VHH, VHH in E. coli supernatant) VHH: QVKLEESGGGLVQAGGSLRLSCAASGSILSAGVMRWYRQAPGKQRELVASIALDGSTGYYIDSVKGRFTISRDNAKNIVYLDMRSLEPADTAVYLCNANIRTDMRSAPFDHWGHGTQVTVSS | binds | – | –
4H9 VHH (VHH, VHH in E. coli supernatant) VHH: QVQLVESGGGAVQAGGSLRLSCTASGPIARSRSTGMGWFRQGPGKERESVAAISSDGRFTYYAASVKGRFTISKDNAKSAAFLQMNSLKPEDTAVYYCAARDSGSGYYSRAQWYDYWGQGTQVTVSS | binds | – | –
4E5 VHH (VHH, VHH in E. coli supernatant) VHH: QVQLVDSGGGVVEVGASLTLSCETSGLTSSDIAVGWFRQGPGKERESVAAISSDGRFTYYAASVKGRFTISKDNAKSAAFLQMNSLKPEDTAVYYCAARDSGSGYYSRAQWYDYWGQGTQVTVSS | binds | – | –
4B5 VHH (VHH, VHH in E. coli supernatant) VHH: QVKLEESGGRSVLAGGSLRLRCAGTPRTFSTFHIGWFRQAPGKEREFVAAFNWSGGRTYYADSVKGRFTISRNNGKNMVYLQMTSLTPEDTGLYYCAAARDRGLHDGTTSDSYLEGSHEYEYWGQGTQVTVSS | binds | – | –
4H6 VHH (VHH, VHH in E. coli supernatant) VHH: QVQLVESGGGLATAGASLILSCAASGTIFRLNRMGWFRQAPGKERERVAATIWSGRRTHYADSVKGRFTISTDNAKKTVYLRMSSLKPEDTAVYYCNYRRITPWEASGNYWGQGTQVTVSS | binds | – | –
1A10 VHH (VHH) VHH: QVQLVESGGGVVQPGRSLRLSCAASGNSFSSYPMGWFRQAPGKERESVAAISSDGRFSYYADSVKGRFTISRDNSKNTLYLQMNSLRAEDTAVYYCACRDSGSGYYSRAQWYDYWGQGTLVTVSS | – | binds | binds
2A6 VHH (VHH) VHH: QVQLVESGGGVVQPGRSLRLSCAASGPSFSLYPMGWFRQAPGKERESVAAISSDRRFTYYADSVKGRFTISRDNSKNTLYLQMNSLRAEDTAVYYCAARDSGSGYYSRAQWYDYWGQGTLVTVSS | – | binds | binds
1D11 VHH (VHH) VHH: QVQLVESGGGVVQPGRSLRLSCAASGPSFSSSPMGWFRQAPGKERESVAAISSMGRFTYYADSVKGRFTISRDNSKNTLYLQMNSLRAEDTAVYYCAARDSGSGYYSRAQWYDYWGQGTLVTVSS | – | binds | binds
5E8 VHH (VHH) VHH: QVQLVESGGGVVQPGRSLRLSCAASGPSFSSYPMGWFRQAPGKERESVAAQSSDGRFTYYADSVKGRFTISRDNSKNTLYLQMNSLRAEDTAVYYCAARDSGSGYYSRAQWYDYWGQGTLVTVSS | – | binds | binds
2A5 VHH (VHH) VHH: QVQLVESGGGVVQPGRSLRLSCAASGPSFSSYPMGWFRQAPGKERESVAAISSVGRFTYYADSVKGRFTISRDNSKNTLYLQMNSLRAEDTAVYYCAARDSGSGYYSRWQWYDYWGQGTLVTVSS | – | binds | binds
7B11 VHH (VHH) VHH: QVQLVESGGGVVQPGRSLRLSCAASGPSFLIYPMGWFRQAPGKERESVAAISSDGRFWYYADSVKGRFTISRDNSKNTLYLQMNSLRAEDTAVYYCAARDSGSGYYSRVQWYDYWGQGTLVTVSS | – | binds | binds
6B11 VHH (VHH) VHH: QVQLVESGGGVVQPGRSLRLSCAASGPSFPSYPMGWFRQAPGKERESVAAISSRGRFTYYADSVKGRFTISRDNSKNTLYLQMNSLRAEDTAVYYCAARDSGSGYYSRLQWYDYWGQGTLVTVSS | – | binds | binds
5G10 VHH (VHH) VHH: QVQLVESGGGVVQPGRSLRLSCAASGPRFSSYPMGWFRQAPGKERESVAAISSDGRFTYYADSVKGRFTISRDNSKNTLYLQMNSLRAEDTAVYYCAARDSGSGYYSRAQWYDGWGQGTLVTVSS | – | binds | binds
6D8 VHH (VHH) VHH: QVQLVESGGGVVQPGRSLRLSCAASGPSFSSKPMGWFRQAPGKERESVAARSSDGRFTYYADSVKGRFTISRDNSKNTLYLQMNSLRAEDTAVYYCAARDSGSGRYSRAQWYDYWGQGTLVTVSS | – | binds | binds
5B5 VHH (VHH) VHH: QVQLVESGGGVVQPGRSLRLSCAASGPSFSSYPMGWFRQAPGKERESVAAISSDTRFTYYADSVKGRFTISRDNSKNTLYLQMNSLRAEDTAVYYCAARDSGSGYYSRAQWYDRWGQGTLVTVSS | – | binds | binds
1C7 VHH (VHH) VHH: QVQLVESGGGVVQPGRSLRLSCAASGPSFSSYPMGWFRQAPGKERESVAAISSRGRFTYYADSVKGRFTISRDNSKNTLYLQMNSLRAEDTAVYYCAARGSGSGYYSRAQWYDYWGQGTLVTVSS | – | binds | binds
6D12 VHH (VHH) VHH: QVQLVESGGGVVQPGRSLRLSCAASGPSFSTYPMGWFRQAPGKERESVAAISSDGVFTYYADSVKGRFTISRDNSKNTLYLQMNSLRAEDTAVYYCAARDSGSGYYSREQWYDYWGQGTLVTVSS | – | binds | binds
6E9 VHH (VHH) VHH: QVQLVESGGGVVQPGRSLRLSCAASGPSRSSYPMGWFRQAPGKERESVAAISSDGKFTYYADSVKGRFTISRDNSKNTLYLQMNSLRAEDTAVYYCAARDSGSGYYSRANWYDYWGQGTLVTVSS | – | binds | binds
2C5 VHH (VHH) VHH: QVQLVESGGGVVQPGRSLRLSCAASGPSFSTYPMGWFRQAPGKERESVAAISSQGRFTYYADSVKGRFTISRDNSKNTLYLQMNSLRAEDTAVYYCAARDSGSGYYSRAQWYDYWGQGTLVTVSS | – | binds | binds
2D5 VHH (VHH) VHH: QVQLVESGGGVVQPGRSLRLSCAASGPSFSSSPMGWFRQAPGKERESVAAISWDGRFTYYADSVKGRFTISRDNSKNTLYLQMNSLRAEDTAVYYCAARDSGSGYYSRAQWYVYWGQGTLVTVSS | – | binds | binds
4D11 VHH (VHH, VHH in E. coli supernatant) VHH: QVQLQESGGGLVQPGGSLRLSCAASGSISSINAMGWYRLAPGKHREFVADITNSGSTNYAASVKGRFNISRDNAKDTVYLQMNSLKFEDTAVYYCTARRSTWYISSGRGTQVTVSS | binds | – | –
4A11 VHH (VHH, VHH in E. coli supernatant) VHH: QVKLEESGGGEAQPGGSLRLSCTASGRPFSNYTMGWFRRAPGKEREFVGLAWPSPSTYVVDSVKGRFTISRDNAKNTIYLQMNSLKPEDTAIYYCAADYKSLTQSWLNAALDYWGQGTQVTVSS | binds | – | –
4C5 VHH (VHH, VHH in E. coli supernatant) VHH: QVQLVDSGGGLVQAGGSLRLSCAVSGRSVSTYFVGWFRQAPGKEREFVAAIDRGSTVTRYDDSVKGRFTISRDNAKDTVYLQMNSLKPEDTAVYYCAAKAITRNFIATNDYDYWGQGTQVTVSS | binds | – | –
